Experimental data reported in publication PMC13215203, “Phosphorylation remodels the mitotic centrosome matrix to generate bipartite γ-tubulin complex docking sites” (Science Advances, 2026).

T1: M6HH-tagged SPD-5 amino acids 1-113 (PRGB1), not phosphorylated (C. elegans, UniProt P91349 1-113)
T1 construct: source: E. coli BL21(DE3) pLysS, purified (Ni-NTA)
T1 sequence (looked up): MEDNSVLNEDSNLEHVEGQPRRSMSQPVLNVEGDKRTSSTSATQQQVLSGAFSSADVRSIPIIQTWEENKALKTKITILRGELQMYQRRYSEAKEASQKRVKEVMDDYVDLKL

T2: untagged SPD-5 amino acids 101-473, not phosphorylated (C. elegans, UniProt P91349 101-473)
T2 construct: also called fragment containing the γTuNA-In and PRGB2; source: E. coli BL21(DE3) pLysS, purified (glutathione agarose, cut from GST with PreScission or HRV-3C protease)
T2 sequence (looked up): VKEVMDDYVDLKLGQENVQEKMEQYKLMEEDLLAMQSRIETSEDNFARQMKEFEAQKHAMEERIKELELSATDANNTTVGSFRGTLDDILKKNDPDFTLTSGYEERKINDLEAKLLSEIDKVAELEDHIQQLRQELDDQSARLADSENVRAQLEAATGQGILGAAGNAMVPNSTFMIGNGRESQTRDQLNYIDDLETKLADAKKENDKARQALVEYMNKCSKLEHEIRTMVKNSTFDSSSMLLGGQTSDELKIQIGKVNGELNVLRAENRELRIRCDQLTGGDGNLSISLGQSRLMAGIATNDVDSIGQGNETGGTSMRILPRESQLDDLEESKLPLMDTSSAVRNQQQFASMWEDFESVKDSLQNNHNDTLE

B1: M6HH-tagged SPD-5 amino acids 1-345, not phosphorylated (domain or fragment, C. elegans, UniProt P91349 1-345, looked up)
chain: MEDNSVLNEDSNLEHVEGQPRRSMSQPVLNVEGDKRTSSTSATQQQVLSGAFSSADVRSIPIIQTWEENKALKTKITILRGELQMYQRRYSEAKEASQKRVKEVMDDYVDLKLGQENVQEKMEQYKLMEEDLLAMQSRIETSEDNFARQMKEFEAQKHAMEERIKELELSATDANNTTVGSFRGTLDDILKKNDPDFTLTSGYEERKINDLEAKLLSEIDKVAELEDHIQQLRQELDDQSARLADSENVRAQLEAATGQGILGAAGNAMVPNSTFMIGNGRESQTRDQLNYIDDLETKLADAKKENDKARQALVEYMNKCSKLEHEIRTMVKNSTFDSSSMLLGG
notes: source: E. coli BL21(DE3) pLysS, purified (Ni-NTA)
B2: Halo-tagged SPD-5 amino acids 135-200, not phosphorylated (domain or fragment, C. elegans, UniProt P91349 135-200, looked up)
chain: MQSRIETSEDNFARQMKEFEAQKHAMEERIKELELSATDANNTTVGSFRGTLDDILKKNDPDFTLT
notes: as for B1
B3: untagged SPD-5 amino acids 1-473, not phosphorylated (domain or fragment, C. elegans, UniProt P91349 1-473, looked up)
chain: MEDNSVLNEDSNLEHVEGQPRRSMSQPVLNVEGDKRTSSTSATQQQVLSGAFSSADVRSIPIIQTWEENKALKTKITILRGELQMYQRRYSEAKEASQKRVKEVMDDYVDLKLGQENVQEKMEQYKLMEEDLLAMQSRIETSEDNFARQMKEFEAQKHAMEERIKELELSATDANNTTVGSFRGTLDDILKKNDPDFTLTSGYEERKINDLEAKLLSEIDKVAELEDHIQQLRQELDDQSARLADSENVRAQLEAATGQGILGAAGNAMVPNSTFMIGNGRESQTRDQLNYIDDLETKLADAKKENDKARQALVEYMNKCSKLEHEIRTMVKNSTFDSSSMLLGGQTSDELKIQIGKVNGELNVLRAENRELRIRCDQLTGGDGNLSISLGQSRLMAGIATNDVDSIGQGNETGGTSMRILPRESQLDDLEESKLPLMDTSSAVRNQQQFASMWEDFESVKDSLQNNHNDTLE
notes: also called SPD-5 N terminus; source: E. coli BL21(DE3) pLysS, purified (glutathione agarose, cut from GST with PreScission or HRV-3C protease; gel filtration)
B4: untagged SPD-5 amino acids 1-473, phosphorylated by PLK1 (domain or fragment, C. elegans, UniProt P91349 1-473, looked up)
chain: B3 chain
modifications: phosphorylated in vitro by PLK1; predicted sites S5, S11, S170, T178, T198, T274, T335, S339, S340
notes: also called SPD-5 N terminus; source: E. coli BL21(DE3) pLysS, purified (glutathione agarose, cut from GST), then incubated with PLK1 and ATP
B5: M6HH-tagged SPD-5 amino acids 1-473, not phosphorylated (domain or fragment, C. elegans, UniProt P91349 1-473, looked up)
chain: B3 chain
notes: as for B1
B6: M6HH-tagged SPD-5 amino acids 1-101 (PRGB1), not phosphorylated (domain or fragment, C. elegans, UniProt P91349 1-101, looked up)
chain: MEDNSVLNEDSNLEHVEGQPRRSMSQPVLNVEGDKRTSSTSATQQQVLSGAFSSADVRSIPIIQTWEENKALKTKITILRGELQMYQRRYSEAKEASQKRV
notes: as for B1

Assays:
[1] = molecular target: the molecule itself; experiment: SEC-MALS; Superose 6 increase 10/300 or Superdex 200 increase 10/300 in 20 mM tris-HCl pH 7.5, 50 mM NaCl, 5 mM EGTA, 2 mM MgCl2, 1 mM DTT; 120 μl of ~2.0 mg/ml protein loaded; with or without PLK1 phosphorylation
[2] = molecular target: T1, M6HH-tagged SPD-5 amino acids 1-113 …; experiment: pull-down; MBP pull-down: purified SPD-5 fragments mixed (2.0 μM) with or without PLK1(T194D) in kinase buffer, then 75 nM each with anti-MBP antibody in lysis buffer 2 h at 4°C and protein A beads 1 h; M6HH-tagged fragment is the bait; immunoblot; details: both partners purified
[3] = molecular target: T2, untagged SPD-5 amino acids 101-473, not …; experiment: as above; details: both partners purified

Binder | stoichiometry N [1] | also measured
B1 | 2 | 
B2 |  | binding result [2]: binds
B3 | 2 | 
B4 | 2 | 
B5 | 2 | 
B6 |  | binding result [3]: binds
